According to the RNAGym collection of RNA variant scans (doi:10.1073/pnas.2313332121):
Fewer inactive variants are shown than the library holds.

B1: TPR 5TU (parent)
chain: GGAUCUUCUCGAUCUAACAAAAAAGACAAAUCUGCCACAAAGCUUGAGAGCAUCUUCGGAUGCAGAGGCGGCAGCCUUCGGUGGCGCGAUAGCGCCAACGUUCUCAACUAUGACACGCAAAACGCGUGCUCCGUUGAAUGGAGUUUAUCAUG

Variants of: B1
Experiment: polymerase ribozyme fitness, log enrichment relative to wild type (log ratio); higher = more active; in vitro selection for triplet polymerase activity
Procedure, shortened: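 The heterodimeric triplet polymerase ribozyme's subunits were each mutagenized into PCR-built libraries and transcribed. Every library was selected once, in triplicate, by annealing with a biotinylated primer, the partner subunit and triplets, incubating frozen at −7 °C, gel-excising extended constructs, capturing on streptavidin beads and running RT-PCR. Input and output libraries were Illumina-sequenced, with genotypes kept only at ≥10 input reads and ≥1 read per output. Fitness, from inverse-variance-weighted replicate averages, is the base-2 logarithm of genotype enrichment over wild-type enrichment.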
In the case of U7A A26G U31C G50U A73C G86A U104G, the “polymerase ribozyme fitness (log ratio)” value is reported as no more than -4.2.
With U7G C85A the “polymerase ribozyme fitness (log ratio)” value was -3.43.
With U7G C85U the “polymerase ribozyme fitness (log ratio)” value was -2.79.
In the case of C8A A12G, the “polymerase ribozyme fitness (log ratio)” value is reported as -3.98.
In the case of U7G A41U C43U U82G G92U U146A, the “polymerase ribozyme fitness (log ratio)” value is reported as no more than -4.2.
For U7A C75U G94C A122G U145A, the “polymerase ribozyme fitness (log ratio)” value was -3.63.
In the case of U6G A41C G42A U56C C85A C99A, the “polymerase ribozyme fitness (log ratio)” value is reported as no more than -4.2.
In the case of U6G A29C A73U G86U, the “polymerase ribozyme fitness (log ratio)” value is reported as no more than -4.2.
For U7G C38A G83A G84U U148C, the “polymerase ribozyme fitness (log ratio)” value was no more than -4.2.
In the case of U7G A40U A66C G81C A120G U146G, the “polymerase ribozyme fitness (log ratio)” value is reported as no more than -4.2.
In the case of U7C C85U U145A, the “polymerase ribozyme fitness (log ratio)” value is reported as -2.42.
For U6G A121U, the “polymerase ribozyme fitness (log ratio)” value was -0.506.
In the case of U7C C18U U31A G81A G84U, the “polymerase ribozyme fitness (log ratio)” value is reported as -3.99.
In the case of C8A A26U A37C G59A C93U, the “polymerase ribozyme fitness (log ratio)” value is reported as no more than -4.2.
For U7G A19U A52U U56A A91G C108A, the “polymerase ribozyme fitness (log ratio)” value was no more than -4.2.
For C8A A52C C75U C95G C96U U109A, the “polymerase ribozyme fitness (log ratio)” value was no more than -4.2.
With U7C C38U C95A A119U the “polymerase ribozyme fitness (log ratio)” value was -2.61.
For U6G A22U A40G C57A G94A, the “polymerase ribozyme fitness (log ratio)” value was -2.43.
With U6G G46A U56C C76G G81C A91C A106G A137U U144C U151A the “polymerase ribozyme fitness (log ratio)” value was no more than -4.2.
For U7A A17C A142C, the “polymerase ribozyme fitness (log ratio)” value was -3.31.
In the case of U6G G83A, the “polymerase ribozyme fitness (log ratio)” value is reported as -0.0531.
For U7G G83A A91U C131U, the “polymerase ribozyme fitness (log ratio)” value was -3.4.
In the case of U7C C35U, the “polymerase ribozyme fitness (log ratio)” value is reported as -2.29.
For U7C G92C, the “polymerase ribozyme fitness (log ratio)” value was -2.73.
For U7A U44A, the “polymerase ribozyme fitness (log ratio)” value was no more than -4.2.
For U6G A41C A49G C95G, the “polymerase ribozyme fitness (log ratio)” value was -2.03.
For C8A A16U A17U A26U G80C C87U U139G U151A, the “polymerase ribozyme fitness (log ratio)” value was no more than -4.2.
In the case of U7A A29U C35U A66C U82G A113U, the “polymerase ribozyme fitness (log ratio)” value is reported as -3.86.
With U7G A23C A28U C38G A121G the “polymerase ribozyme fitness (log ratio)” value was no more than -4.2.
In the case of U7C A20C A89G C96A U111C C118U, the “polymerase ribozyme fitness (log ratio)” value is reported as no more than -4.2.
With U6G C87G the “polymerase ribozyme fitness (log ratio)” value was -3.6.
For U6G C87U, the “polymerase ribozyme fitness (log ratio)” value was -0.579.
With U6G A22C C35A G58C G74U C76U U78C G133U U151C the “polymerase ribozyme fitness (log ratio)” value was no more than -4.2.
For U7C G11C G59A G71C C76U G84U A138C, the “polymerase ribozyme fitness (log ratio)” value was no more than -4.2.
With U7C G46C U56A U77C G81A G86U G100A G133U the “polymerase ribozyme fitness (log ratio)” value was no more than -4.2.
In the case of C8A A19G C57G G88A U146G, the “polymerase ribozyme fitness (log ratio)” value is reported as no more than -4.2.
In the case of U6G G86U G152U, the “polymerase ribozyme fitness (log ratio)” value is reported as -4.12.
In the case of U7A A21U G25U U44A A49C C54A C63G C85U G86U C99G, the “polymerase ribozyme fitness (log ratio)” value is reported as no more than -4.2.
For U6G A26C G136A A142U U146A, the “polymerase ribozyme fitness (log ratio)” value was no more than -4.2.
With U7C A24U C96U A107G C125G U144C U151C the “polymerase ribozyme fitness (log ratio)” value was -4.07.
For U7G A60U G83C C85A C105G A137G, the “polymerase ribozyme fitness (log ratio)” value was no more than -4.2.
With U7A U53A U56A the “polymerase ribozyme fitness (log ratio)” value was no more than -4.2.
In the case of U7A U33G C79A C116U U144C, the “polymerase ribozyme fitness (log ratio)” value is reported as no more than -4.2.
For U6G A29U A73G U77C C95U A107U, the “polymerase ribozyme fitness (log ratio)” value was no more than -4.2.
With U6G C10G C14A A49C C85A C93U C116U the “polymerase ribozyme fitness (log ratio)” value was no more than -4.2.
In the case of U7G U15A G59C G124C G136A, the “polymerase ribozyme fitness (log ratio)” value is reported as -3.25.
In the case of U7G G11U A16G A24C U31G G34U A98G G117C, the “polymerase ribozyme fitness (log ratio)” value is reported as no more than -4.2.
For U7G G48C G84A, the “polymerase ribozyme fitness (log ratio)” value was -3.94.
For U6G A22G U139A, the “polymerase ribozyme fitness (log ratio)” value was no more than -4.2.
With U6G U53C G92C U144C the “polymerase ribozyme fitness (log ratio)” value was -1.5.
With U6G G59C the “polymerase ribozyme fitness (log ratio)” value was 0.358.
For U7G G92U, the “polymerase ribozyme fitness (log ratio)” value was -2.39.
For C8A A19G G62A G67C C93A A97U G112U A142G U148A, the “polymerase ribozyme fitness (log ratio)” value was no more than -4.2.
With U6G C63U A89C the “polymerase ribozyme fitness (log ratio)” value was -0.961.
With U7A U31G G81C G84U C95U A107G G128U A137G the “polymerase ribozyme fitness (log ratio)” value was no more than -4.2.
For U7G C32U C54G C96U, the “polymerase ribozyme fitness (log ratio)” value was no more than -4.2.
In the case of U7C C18G G94A G117C, the “polymerase ribozyme fitness (log ratio)” value is reported as -3.67.
For C8A A41C A66U C69A U77C G83C G126U U130G G141C G152C, the “polymerase ribozyme fitness (log ratio)” value was no more than -4.2.
For U6G A41U U45C, the “polymerase ribozyme fitness (log ratio)” value was -2.17.
In the case of U7A G11A A41G A66C U77C C85U A106C U151A, the “polymerase ribozyme fitness (log ratio)” value is reported as no more than -4.2.
For U7C U9G A17U A26G G84A C116A, the “polymerase ribozyme fitness (log ratio)” value was -3.98.
In the case of U6G G11A G48U G50U A66G U90A G100U U102A A122C, the “polymerase ribozyme fitness (log ratio)” value is reported as no more than -4.2.
With U6G G86C U135G the “polymerase ribozyme fitness (log ratio)” value was no more than -4.2.
With U7G G42C U61A C96U G112C G124C G126C G136A the “polymerase ribozyme fitness (log ratio)” value was no more than -4.2.
For U7G A21C C35A A47C C99A C123A, the “polymerase ribozyme fitness (log ratio)” value was no more than -4.2.
With U6G U13G U44A A60G C69G C93A C118A the “polymerase ribozyme fitness (log ratio)” value was no more than -4.2.
For C8A A16C C18G A49C C95U A98G A142U, the “polymerase ribozyme fitness (log ratio)” value was no more than -4.2.
For U6G A22U C85A, the “polymerase ribozyme fitness (log ratio)” value was -0.601.
With U6G U55G G92A the “polymerase ribozyme fitness (log ratio)” value was -3.71.
In the case of U6G A73C C99U, the “polymerase ribozyme fitness (log ratio)” value is reported as no more than -4.2.
In the case of U7G A26C U31G U55A G86C G126U, the “polymerase ribozyme fitness (log ratio)” value is reported as no more than -4.2.
With U7A C85U the “polymerase ribozyme fitness (log ratio)” value was -2.9.
With U6G C114A the “polymerase ribozyme fitness (log ratio)” value was -3.22.
With U6G C10A A16G A20C U53A C54G A64U C85U G86A A113U U145C the “polymerase ribozyme fitness (log ratio)” value was no more than -4.2.
In the case of U7G G11C A29C U82G C95U U109G, the “polymerase ribozyme fitness (log ratio)” value is reported as no more than -4.2.
With U6G A21U G94A U104G U127A the “polymerase ribozyme fitness (log ratio)” value was no more than -4.2.
In the case of U6G G81C A91G, the “polymerase ribozyme fitness (log ratio)” value is reported as -2.46.
In the case of U7A A24C G50U A52U C87G, the “polymerase ribozyme fitness (log ratio)” value is reported as no more than -4.2.
For U6G G68A, the “polymerase ribozyme fitness (log ratio)” value was -3.62.
In the case of U7C C18U U61C C69A C93A C114U, the “polymerase ribozyme fitness (log ratio)” value is reported as no more than -4.2.
In the case of U6G A23U A73G C76A A98G C105G A113C A119G, the “polymerase ribozyme fitness (log ratio)” value is reported as no more than -4.2.
With U7A C14G U45A G50A C57A G71C A110U G112U C125G C132U the “polymerase ribozyme fitness (log ratio)” value was no more than -4.2.
With U6G G59C C85U G92U U127A the “polymerase ribozyme fitness (log ratio)” value was no more than -4.2.
With U6G A26G A29C A47U C63U G84A G136U G143C U151A the “polymerase ribozyme fitness (log ratio)” value was no more than -4.2.
